Experiment [1] addresses T1, Human Serum Albumin (human, UniProt P02768 25-609).
T1 construct: also called HSA
Kind of experiment: SPR Biacore T200, HSA on CM5 chip, ADAPT injected, 1:1 fit. As to the method:
(§1) Sensor-based binding analysis was performed using a Biacore T200 system (GE Healthcare, Stockholm, Sweden). All analyses were conducted using CM-5 sensor chips coated with the target antigen, another irrelevant antigen and HSA. One surface was left as reference. Binding analysis was performed in PBS-T at 25° C. The ADAPT variants were diluted in PBS-T to 500 nM, 250 nM, 125 nM, 62.5 nM and 31.25 nM. The samples were injected at a flow rate of 30 ul/min for 120 s followed by injection of PBS-T for 240 s to monitor the dissociation. Surfaces were regenerated with 10 mM HCl. Kinetic parameters were determined using the Biacore Insight Evaluation software, assuming a 1:1 binding.
(Surface plasmon resonance follows binding to a sensor surface in real time, without labels.)

The target in experiment [2] is T1, Human Serum Albumin. The experiment is described as above. As to the method: as §1
The source holds these as a separate data set.

Experiment [3] deals with T2, myeloid-derived growth factor (human (produced in the Human Secretome …, UniProt Q969H8 32-173, limits assumed)).
T2 construct: also called MYDGF; bMYDGF
T2 sequence (looked up): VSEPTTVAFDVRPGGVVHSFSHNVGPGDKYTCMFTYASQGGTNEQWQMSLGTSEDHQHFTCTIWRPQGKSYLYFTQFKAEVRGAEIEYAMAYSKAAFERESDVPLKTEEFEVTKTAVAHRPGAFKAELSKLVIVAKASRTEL
Description: SPR Biacore T200, target on CM5 chip, ADAPT injected, 1:1 fit. As to the method:
as §1
(§2) Variants with sufficient alpha helical structure as well as monomeric elution profiles on the SEC column were further analyzed for binding towards their target protein as well as to HSA. The binding towards the target antigen used in the selection was measured by a multi-cycle analysis using SPR, showing that several binders had affinities in the μM-pM range. […] After target binding had been established, the variants were also evaluated for their ability to simultaneously bind to HSA. This was done either through an SPR capture assay or an experiment where the ADAPT was pre-incubated with saturating conditions of HSA before the binding towards the target was analyzed. […] In total, thirteen of the characterized binders from the selections towards TNFα, PSA, ANG, MYDGF and Insulin could bind both HSA and its target antigen simultaneously. FIG. 5 contains sensorgrams for the thirteen variants in the capture assay.

The target in experiment [4] is T2, myeloid-derived growth factor. The description is as above. As to the method: as §1
This is another data set of the same source.

Experiment [5] concerns the target T3, Human recombinant Insulin (human, UniProt P01308 25-54; P01308 90-110, limits assumed).
T3 construct: also called bInsulin
Described as above. As to the method: as §1, §2

Experiment [6] addresses T3, Human recombinant Insulin. The description is as above. As to the method: as §1
This is another data set of the same source.

The target in another experiment is T4, Her2 (UniProt P04626 23-652, limits assumed).
T4 construct: also called irrelevant target Her2
Kind of experiment: SPR (Biacore), ADAPT injected alone at 31.25-500 nM over immobilised Her2 (irrelevant target). On the procedure:
as §1
Variants with sufficient alpha helical structure as well as monomeric elution profiles on the SEC column were further analyzed for binding towards their target protein as well as to HSA. The binding towards the target antigen used in the selection was measured by a multi-cycle analysis using SPR, showing that several binders had affinities in the μM-pM range. […] After target binding had been established, the variants were also evaluated for their ability to simultaneously bind to HSA. This was done either through an SPR capture assay or an experiment where the ADAPT was pre-incubated with saturating conditions of HSA before the binding towards the target was analyzed. […]

Experiment [7] has as its target T5, angiogenin (human (produced in the Human Secretome …, UniProt P03950 25-147)).
T5 construct: also called bANG
Description: SPR Biacore T200, target on CM5 chip, ADAPT injected, 1:1 fit. As to the method: as §1, §2

Experiment [8] has as its target T5, angiogenin. The experiment is described as above. As to the method: as §1
The source holds these as a separate data set.

Read-outs that look alike come from different tables or passages of the source.

T1 sequence (P02768 25-609 limits assumed): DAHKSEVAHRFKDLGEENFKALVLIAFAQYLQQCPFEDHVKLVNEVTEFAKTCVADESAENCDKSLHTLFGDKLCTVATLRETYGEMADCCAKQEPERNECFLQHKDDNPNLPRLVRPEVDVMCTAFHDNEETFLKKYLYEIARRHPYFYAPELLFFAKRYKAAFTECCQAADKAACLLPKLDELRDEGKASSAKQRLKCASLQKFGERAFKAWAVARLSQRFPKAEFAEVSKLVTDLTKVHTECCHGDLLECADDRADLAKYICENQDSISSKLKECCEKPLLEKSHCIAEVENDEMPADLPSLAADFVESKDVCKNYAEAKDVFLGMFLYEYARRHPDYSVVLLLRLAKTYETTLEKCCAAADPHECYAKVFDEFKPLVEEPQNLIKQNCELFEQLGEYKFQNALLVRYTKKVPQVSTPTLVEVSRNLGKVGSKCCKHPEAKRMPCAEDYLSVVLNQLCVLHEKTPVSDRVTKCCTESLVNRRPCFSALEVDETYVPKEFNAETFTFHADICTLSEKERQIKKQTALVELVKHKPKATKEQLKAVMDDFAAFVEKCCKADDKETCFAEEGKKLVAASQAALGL
T5 sequence (P03950 25-147 limits assumed): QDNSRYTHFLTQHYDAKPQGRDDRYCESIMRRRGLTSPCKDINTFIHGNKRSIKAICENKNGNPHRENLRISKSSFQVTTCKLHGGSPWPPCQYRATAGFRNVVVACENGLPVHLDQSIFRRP
T3 sequence (P01308 25-54 limits assumed, chain 1 of 2): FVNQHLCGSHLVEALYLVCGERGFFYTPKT
T3 sequence (P01308 90-110 limits assumed, chain 2 of 2): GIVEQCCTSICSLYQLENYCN

Consider LWWAKVSAIKELQAYGVSDFYYMLITKAKTVEGVEALKLHILAALP (designed binder) [ADAPT variant MYDGF_08], for which the dissociation constant (Kd) with Human Serum Albumin [1] came out at 12 nM; with Human Serum Albumin [2], 12 nM; in experiment [3], 180 nM; in experiment [4] it was 180 nM. In addition, the dissociation rate constant (koff) with Human Serum Albumin [2] worked out at 0.00028 s⁻¹; in experiment [4], 0.18 s⁻¹. For the same molecule, the kon with Human Serum Albumin [2] stood at 23000 M⁻¹ s⁻¹; in [4], 1e+06 M⁻¹ s⁻¹.
For the molecule LAIAKAYAQYELSFYGVSDFYRELIVKAKTVEGVEALKLHILAALP (designed binder, also called INS_02) [ADAPT variant Insulin_02], the Kd with Human Serum Albumin [1] was 1.5 nM; with Human Serum Albumin [2], 1.5 nM; in [5], 670 nM; in experiment [6], 670 nM. For the same molecule, the koff in the experiment with Human Serum Albumin [2] is 0.00093 s⁻¹; in experiment [6] it was 0.12 s⁻¹. The kon in the experiment with Human Serum Albumin [2] turned out to be 640000 M⁻¹ s⁻¹; in experiment [6], 180000 M⁻¹ s⁻¹. Also, in the experiment with Her2, the binding result is “no binding (tested: 500 nM)”.
In the case of LWWAKVWAVAELQKYGVSDFYFKLIDKAKTVEGVEALKLHILAALP (designed binder) [ADAPT variant MYDGF_07], the equilibrium dissociation constant (Kd) with Human Serum Albumin [1] was found to be 4.7 nM; with Human Serum Albumin [2], 4.7 nM; in experiment [3] it was 230 nM; in experiment [4], 230 nM. Besides, the koff with Human Serum Albumin [2] is 0.00014 s⁻¹; in experiment [4], 0.082 s⁻¹. Besides, the kon came to 30000 M⁻¹ s⁻¹ in the experiment with Human Serum Albumin [2] and 350000 M⁻¹ s⁻¹ in [4].
For LWAAKDDADWELWQYGVSDFYRALIWKAKTVEGVEALKLHILAALP (designed binder, also called ANG_6) [ADAPT variant ANG_06], the Kd in the experiment with Human Serum Albumin [1] came out at 1.1 nM; in the experiment with Human Serum Albumin [2], 1.1 nM; with angiogenin [7], 4.9 nM; with angiogenin [8], 4.9 nM. Further, the off-rate constant (koff) with Human Serum Albumin [2] turned out to be 2.6e-05 s⁻¹; with angiogenin [8], 0.00032 s⁻¹. Further, the kon in the experiment with Human Serum Albumin [2] came out at 24000 M⁻¹ s⁻¹; with angiogenin [8], 65000 M⁻¹ s⁻¹.
As for LHEAKDWADYELWSYGVSDFYRALIWKAKTVEGVEALKLHILAALP (designed binder) [ADAPT variant ANG_13], the Kd with Human Serum Albumin [1] is 2.8 nM; with Human Serum Albumin [2], 2.8 nM; with angiogenin [7], 0.028 nM; with angiogenin [8], 0.028 nM. Also, the values for the koff with Human Serum Albumin [2] and with angiogenin [8] were 6.8e-05 s⁻¹ and 2.9e-06 s⁻¹, respectively. Further, the kon with Human Serum Albumin [2] was 25000 M⁻¹ s⁻¹; in the experiment with angiogenin [8], 110000 M⁻¹ s⁻¹.

As a reminder, the Kd is the free concentration of one partner at which half of the binding sites on the other are occupied at equilibrium, for simple one-to-one binding. One may read the koff as the first-order rate constant of dissociation. As usually defined, the kon is a measure of how fast the partners come together.
